Data from patent publication US20140087995A1 (published 2014).
Numbered stars: 1 amine (or outer) side, 2 acyl side, 3 side chain; on linkers, the order of the positions; unused ones are H or OH. Bridge positions count the residues as written; N and C are the ends. Side chains are listed from the residue outwards. Ends that are not written are not given here. * marks the point of attachment. C20 diacid = O=C(O)CCCCCCCCCCCCCCCCCCC(=O)*; γGlu = O=C(O)[C@H](CCC(=O)[*:2])N[*:1]

T1: human calcitonin receptor (human, UniProt P30988 25-474)
T1 construct: whole, on cells; Membranes prepared from a stably transfected BHK cell line (Assay VII); also called hCTR; hCT
T1 sequence (looked up): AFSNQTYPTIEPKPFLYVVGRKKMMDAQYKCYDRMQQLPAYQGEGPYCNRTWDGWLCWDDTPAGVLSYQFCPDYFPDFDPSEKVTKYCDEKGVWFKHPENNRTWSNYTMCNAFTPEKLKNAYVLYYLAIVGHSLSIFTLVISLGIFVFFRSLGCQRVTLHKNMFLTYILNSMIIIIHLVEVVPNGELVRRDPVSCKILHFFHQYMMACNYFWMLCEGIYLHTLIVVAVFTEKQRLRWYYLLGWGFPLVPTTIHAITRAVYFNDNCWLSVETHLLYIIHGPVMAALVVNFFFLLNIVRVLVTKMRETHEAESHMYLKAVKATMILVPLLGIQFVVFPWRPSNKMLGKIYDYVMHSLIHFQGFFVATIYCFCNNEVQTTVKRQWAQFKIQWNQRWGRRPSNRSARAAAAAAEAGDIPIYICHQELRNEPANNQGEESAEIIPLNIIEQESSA

T2: rat calcitonin receptor (rat, UniProt P32214 25-516)
T2 construct: whole, on cells; Membranes prepared from transiently transfected BHK tk'ts 13 cells (Assay VIII); also called rCTR; rCT
T2 sequence (looked up): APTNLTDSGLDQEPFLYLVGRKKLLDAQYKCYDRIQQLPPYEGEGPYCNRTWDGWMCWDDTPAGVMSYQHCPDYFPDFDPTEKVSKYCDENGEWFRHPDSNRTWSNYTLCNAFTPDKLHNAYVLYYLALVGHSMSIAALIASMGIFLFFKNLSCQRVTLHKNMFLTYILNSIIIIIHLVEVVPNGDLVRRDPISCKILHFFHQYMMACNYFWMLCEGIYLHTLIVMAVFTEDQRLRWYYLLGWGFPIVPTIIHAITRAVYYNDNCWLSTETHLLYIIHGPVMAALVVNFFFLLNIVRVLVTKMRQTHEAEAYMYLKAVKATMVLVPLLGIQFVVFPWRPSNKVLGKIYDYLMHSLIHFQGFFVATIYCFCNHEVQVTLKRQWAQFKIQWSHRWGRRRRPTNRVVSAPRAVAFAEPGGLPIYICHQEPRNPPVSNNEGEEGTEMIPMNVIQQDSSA

T3: rat amylin receptor (rat calcitonin receptor + rat RAMP 3) (rat, UniProt P32214 25-516; Q9JJ73 23-147)
T3 construct: whole, on cells; Membranes prepared from transiently transfected BHK tk'ts 13 cells (Assay VI); also called rAmylin-R; rAmylin
T3 sequence (looked up) 1: T2 sequence (looked up)
T3 sequence (looked up) 2: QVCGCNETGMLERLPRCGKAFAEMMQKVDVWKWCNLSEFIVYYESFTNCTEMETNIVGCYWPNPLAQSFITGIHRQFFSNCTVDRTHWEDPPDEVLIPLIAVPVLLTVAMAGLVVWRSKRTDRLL

B1: N^ε1-[(4S)-4-carboxy-4-(19-carboxynonadecanoylamino)butanoyl]-[His14,Arg17,Pro21,Pro27,Arg34]-h-amylin (peptide)
peptide: K([γGlu-C20 diacid])CNTATCATQRLAHFLRHSSPNFGAIPSSTNVGRNTY-NH2
modifications: disulfide 2-7; N-terminus assumed
SMILES: CC[C@H](C)[C@H](NC(=O)[C@H](C)NC(=O)CNC(=O)[C@H](Cc1ccccc1)NC(=O)[C@H](CC(N)=O)NC(=O)[C@@H]1CCCN1C(=O)[C@H](CO)NC(=O)[C@H](CO)NC(=O)[C@H](Cc1c[nH]cn1)NC(=O)[C@H](CCCNC(=N)N)NC(=O)[C@H](CC(C)C)NC(=O)[C@H](Cc1ccccc1)NC(=O)[C@H](Cc1c[nH]cn1)NC(=O)[C@H](C)NC(=O)[C@H](CC(C)C)NC(=O)[C@H](CCCNC(=N)N)NC(=O)[C@H](CCC(N)=O)NC(=O)[C@@H](NC(=O)[C@H](C)NC(=O)[C@@H]1CSSC[C@H](NC(=O)[C@@H](N)CCCCNC(=O)CC[C@H](NC(=O)CCCCCCCCCCCCCCCCCCC(=O)O)C(=O)O)C(=O)N[C@@H](CC(N)=O)C(=O)N[C@@H]([C@@H](C)O)C(=O)N[C@@H](C)C(=O)N[C@@H]([C@@H](C)O)C(=O)N1)[C@@H](C)O)C(=O)N1CCC[C@H]1C(=O)N[C@@H](CO)C(=O)N[C@@H](CO)C(=O)N[C@H](C(=O)N[C@@H](CC(N)=O)C(=O)N[C@H](C(=O)NCC(=O)N[C@@H](CCCNC(=N)N)C(=O)N[C@@H](CC(N)=O)C(=O)N[C@H](C(=O)N[C@@H](Cc1ccc(O)cc1)C(N)=O)[C@@H](C)O)C(C)C)[C@@H](C)O
notes: Analogue of human amylin; also called compound 85
B2: N^ε1-[(4S)-4-carboxy-4-(19-carboxynonadecanoylamino)butanoyl]-[His14,Arg17,Pro21,Pro27,His34]-h-amylin (peptide)
peptide: K([γGlu-C20 diacid])CNTATCATQRLAHFLRHSSPNFGAIPSSTNVGHNTY-NH2
modifications: disulfide 2-7; N-terminus assumed
SMILES: CC[C@H](C)[C@H](NC(=O)[C@H](C)NC(=O)CNC(=O)[C@H](Cc1ccccc1)NC(=O)[C@H](CC(N)=O)NC(=O)[C@@H]1CCCN1C(=O)[C@H](CO)NC(=O)[C@H](CO)NC(=O)[C@H](Cc1c[nH]cn1)NC(=O)[C@H](CCCNC(=N)N)NC(=O)[C@H](CC(C)C)NC(=O)[C@H](Cc1ccccc1)NC(=O)[C@H](Cc1c[nH]cn1)NC(=O)[C@H](C)NC(=O)[C@H](CC(C)C)NC(=O)[C@H](CCCNC(=N)N)NC(=O)[C@H](CCC(N)=O)NC(=O)[C@@H](NC(=O)[C@H](C)NC(=O)[C@@H]1CSSC[C@H](NC(=O)[C@@H](N)CCCCNC(=O)CC[C@H](NC(=O)CCCCCCCCCCCCCCCCCCC(=O)O)C(=O)O)C(=O)N[C@@H](CC(N)=O)C(=O)N[C@@H]([C@@H](C)O)C(=O)N[C@@H](C)C(=O)N[C@@H]([C@@H](C)O)C(=O)N1)[C@@H](C)O)C(=O)N1CCC[C@H]1C(=O)N[C@@H](CO)C(=O)N[C@@H](CO)C(=O)N[C@H](C(=O)N[C@@H](CC(N)=O)C(=O)N[C@H](C(=O)NCC(=O)N[C@@H](Cc1c[nH]cn1)C(=O)N[C@@H](CC(N)=O)C(=O)N[C@H](C(=O)N[C@@H](Cc1ccc(O)cc1)C(N)=O)[C@@H](C)O)C(C)C)[C@@H](C)O
notes: Analogue of human amylin; also called compound 81
B3: N^ε1-[(4S)-4-carboxy-4-(19-carboxynonadecanoylamino)butanoyl]-[His14,Arg17,Pro21,Pro27,His35]-h-amylin (peptide)
peptide: K([γGlu-C20 diacid])CNTATCATQRLAHFLRHSSPNFGAIPSSTNVGSHTY-NH2
modifications: disulfide 2-7; N-terminus assumed
SMILES: CC[C@H](C)[C@H](NC(=O)[C@H](C)NC(=O)CNC(=O)[C@H](Cc1ccccc1)NC(=O)[C@H](CC(N)=O)NC(=O)[C@@H]1CCCN1C(=O)[C@H](CO)NC(=O)[C@H](CO)NC(=O)[C@H](Cc1c[nH]cn1)NC(=O)[C@H](CCCNC(=N)N)NC(=O)[C@H](CC(C)C)NC(=O)[C@H](Cc1ccccc1)NC(=O)[C@H](Cc1c[nH]cn1)NC(=O)[C@H](C)NC(=O)[C@H](CC(C)C)NC(=O)[C@H](CCCNC(=N)N)NC(=O)[C@H](CCC(N)=O)NC(=O)[C@@H](NC(=O)[C@H](C)NC(=O)[C@@H]1CSSC[C@H](NC(=O)[C@@H](N)CCCCNC(=O)CC[C@H](NC(=O)CCCCCCCCCCCCCCCCCCC(=O)O)C(=O)O)C(=O)N[C@@H](CC(N)=O)C(=O)N[C@@H]([C@@H](C)O)C(=O)N[C@@H](C)C(=O)N[C@@H]([C@@H](C)O)C(=O)N1)[C@@H](C)O)C(=O)N1CCC[C@H]1C(=O)N[C@@H](CO)C(=O)N[C@@H](CO)C(=O)N[C@H](C(=O)N[C@@H](CC(N)=O)C(=O)N[C@H](C(=O)NCC(=O)N[C@@H](CO)C(=O)N[C@@H](Cc1c[nH]cn1)C(=O)N[C@H](C(=O)N[C@@H](Cc1ccc(O)cc1)C(N)=O)[C@@H](C)O)C(C)C)[C@@H](C)O
notes: Analogue of human amylin; also called compound 66
B4: N^ε1-[(4S)-4-carboxy-4-(19-carboxynonadecanoylamino)butanoyl]-[His14,Arg17,Pro21,Pro27,Pro31]-h-amylin (peptide)
peptide: K([γGlu-C20 diacid])CNTATCATQRLAHFLRHSSPNFGAIPSSTPVGSNTY-NH2
modifications: disulfide 2-7; N-terminus assumed
SMILES: CC[C@H](C)[C@H](NC(=O)[C@H](C)NC(=O)CNC(=O)[C@H](Cc1ccccc1)NC(=O)[C@H](CC(N)=O)NC(=O)[C@@H]1CCCN1C(=O)[C@H](CO)NC(=O)[C@H](CO)NC(=O)[C@H](Cc1c[nH]cn1)NC(=O)[C@H](CCCNC(=N)N)NC(=O)[C@H](CC(C)C)NC(=O)[C@H](Cc1ccccc1)NC(=O)[C@H](Cc1c[nH]cn1)NC(=O)[C@H](C)NC(=O)[C@H](CC(C)C)NC(=O)[C@H](CCCNC(=N)N)NC(=O)[C@H](CCC(N)=O)NC(=O)[C@@H](NC(=O)[C@H](C)NC(=O)[C@@H]1CSSC[C@H](NC(=O)[C@@H](N)CCCCNC(=O)CC[C@H](NC(=O)CCCCCCCCCCCCCCCCCCC(=O)O)C(=O)O)C(=O)N[C@@H](CC(N)=O)C(=O)N[C@@H]([C@@H](C)O)C(=O)N[C@@H](C)C(=O)N[C@@H]([C@@H](C)O)C(=O)N1)[C@@H](C)O)C(=O)N1CCC[C@H]1C(=O)N[C@@H](CO)C(=O)N[C@@H](CO)C(=O)N[C@H](C(=O)N1CCC[C@H]1C(=O)N[C@H](C(=O)NCC(=O)N[C@@H](CO)C(=O)N[C@@H](CC(N)=O)C(=O)N[C@H](C(=O)N[C@@H](Cc1ccc(O)cc1)C(N)=O)[C@@H](C)O)C(C)C)[C@@H](C)O
notes: Analogue of human amylin; also called compound 62
B5: N^ε1-[(4S)-4-carboxy-4-(19-carboxynonadecanoylamino)butanoyl]-[His14,Arg17,Pro21,Pro27,Pro34]-h-amylin (peptide)
peptide: K([γGlu-C20 diacid])CNTATCATQRLAHFLRHSSPNFGAIPSSTNVGPNTY-NH2
modifications: disulfide 2-7; N-terminus assumed
SMILES: CC[C@H](C)[C@H](NC(=O)[C@H](C)NC(=O)CNC(=O)[C@H](Cc1ccccc1)NC(=O)[C@H](CC(N)=O)NC(=O)[C@@H]1CCCN1C(=O)[C@H](CO)NC(=O)[C@H](CO)NC(=O)[C@H](Cc1c[nH]cn1)NC(=O)[C@H](CCCNC(=N)N)NC(=O)[C@H](CC(C)C)NC(=O)[C@H](Cc1ccccc1)NC(=O)[C@H](Cc1c[nH]cn1)NC(=O)[C@H](C)NC(=O)[C@H](CC(C)C)NC(=O)[C@H](CCCNC(=N)N)NC(=O)[C@H](CCC(N)=O)NC(=O)[C@@H](NC(=O)[C@H](C)NC(=O)[C@@H]1CSSC[C@H](NC(=O)[C@@H](N)CCCCNC(=O)CC[C@H](NC(=O)CCCCCCCCCCCCCCCCCCC(=O)O)C(=O)O)C(=O)N[C@@H](CC(N)=O)C(=O)N[C@@H]([C@@H](C)O)C(=O)N[C@@H](C)C(=O)N[C@@H]([C@@H](C)O)C(=O)N1)[C@@H](C)O)C(=O)N1CCC[C@H]1C(=O)N[C@@H](CO)C(=O)N[C@@H](CO)C(=O)N[C@H](C(=O)N[C@@H](CC(N)=O)C(=O)N[C@H](C(=O)NCC(=O)N1CCC[C@H]1C(=O)N[C@@H](CC(N)=O)C(=O)N[C@H](C(=O)N[C@@H](Cc1ccc(O)cc1)C(N)=O)[C@@H](C)O)C(C)C)[C@@H](C)O
notes: Analogue of human amylin; also called compound 67

What follows are binders tested against T1, human calcitonin receptor (assay: ratio of binding IC50s: human calcitonin receptor / human amylin receptor (reference)).
In short: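 Competition binding by SPA uses membrane preparations (35 ng/μL final) in pH 7.4 Hepes buffer with 1 mM CaCl2 and 5 mM MgCl₂. Incubation lasts 120 min at 25° C, and IC₅₀ comes from one-site fitting.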

Compared with B1, B2 is lower in “Ratio hCT/hAmylin binding” value: 91.8 for the first, 87.2 for the second.

Going from B3 to B4, the “Ratio hCT/hAmylin binding” value rises from 45.5 to 63.

For B5, the “Ratio hCT/hAmylin binding” value was 51.6.

Each binder was assayed against T2, rat calcitonin receptor (assay: ratio of binding IC50s: rat calcitonin receptor / rat amylin receptor (reference)).

Compared with B1, B2 is lower in “Ratio rCT/rAmylin binding” value: 46.5 for the first, 42.9 for the second.

First: B3
Second: B4
The “Ratio rCT/rAmylin binding” value of the first is lower: 35.8 for the first, 42.8 for the second.

B5 was tested, and the “Ratio rCT/rAmylin binding” value was 85.4.

The binders below were run against T3, rat amylin receptor (rat calcitonin …) (assay: SPA competition vs 125I-rat amylin, membranes of BHK cells with rat calcitonin receptor + rat RAMP3 (Assay VI)).

Going from B1 to B2, the IC50 falls from 3.14 nM to 1.42 nM (2.2-fold).

B3 and B4 are within 1.5-fold of each other in IC50: 0.581 nM for the first, 0.42 nM for the second.

B5 showed an IC50 of 0.172 nM.

What follows are binders tested against T2, rat calcitonin receptor (assay: SPA competition vs 125I-calcitonin, membranes of BHK cells with rat calcitonin receptor (Assay VIII)).

First: B1
Second: B2
The IC50 of the first is 2.4-fold higher: 146 nM for the first, 61.1 nM for the second. The second is the more potent here.

B3 and B4 are within 1.5-fold of each other in IC50: 20.8 nM for the first, 18 nM for the second.

For B5, the IC50 was 14.7 nM.
